This note sets out measurements from US20120027773A1 (AVEO PHARMACEUTICALS, published 2012).

The target of experiment [1] is T1, human wild-type RON (cell surface) (human, UniProt Q04912 25-1400). Kind of experiment: cell-based or functional assay.
For experiment [2], the target named is T2, recombinant human RON SEMA and PSI domains (human, UniProt Q04912 25-571).
T2 construct: domain: SEMA+PSI; Commercial protein (R&D Systems); also called rhRON SEMA+PSI; hRON SEMA+PSI
The experiment is described as follows: ECL competition, MSP binding to coated hRON SEMA+PSI; competitor MSP; average n=3. The procedure: (§1) The biochemical neutralization assay measures inhibition of MSP binding to hRON by antibodies in hybridoma supernatants, using electrochemiluminescence (ECL). MA2400 96-well high binding plates (Meso Scale Discovery) were coated with 25 μl of 0.42 μg/mL hRON SEMA+PSI (an N-terminal portion of the ECD of hRON; R&D Systems) in PBS for one hour at room temperature with agitation. The plates were washed four times with PBS+0.1% Tween-20 (PBST), and blocked with 150 μl of charcoal-stripped fetal bovine serum (FBS) (Gibco). The hybridoma supernatant were added and incubated for 45 minutes at room temperature. After incubation, 5 μl of MSP (3 μg/mL) in charcoal stripped FBS was added to each well, and incubated for 45 minutes. The plate was washed four times with PBST, and 25 μl of 1 μg/mL biotinylated anti-MSP antibody (R&D Systems) was added to the plates for one hour at room temperature with agitation. The plates were washed four times with PBST, and incubated with 25 μl of 1 μg/mL ST-streptavidin (Meso Scale Discovery) for one hour at room temperature with agitation. The plates were washed four times with PBST, and 150 μl read buffer (Meso Scale Discovery) was added to each well before the plates were analyzed on a Sector Imager 2400 (Meso Scale Discovery) instrument. Antibodies 07F01, 18H09 and 29B06 each blocked MSP binding to hRON SEMA+PSI in this neutralization assay.
(§2) Antibodies 07F01, 12B11, 17F06, 18H09, and 29B06 were tested for inhibition of MSP binding to hRON SEMA+PSI, as measured by electrochemiluminescence (ECL) assay as described in Example 3. The antibodies (concentration range: 0.006-10 μg/mL) were incubated for 45 minutes at room temperature.

The target in experiment [3] is T1, human wild-type RON (cell surface). The experiment is described as follows: FACS titration on PC3 cells, 4 C. The protocol:
Binding to cell surface human wild-type RON and the delta 160 RON variant by antibodies 07F01, Sh07F01-62, 29B06, and Sh29B06-78 was measured at 4° C., using Fluorescence Activated Cell Sorting (FACS). PC3 cells expressing the human wild-type RON, and HT29 cells expressing the delta 160 variant, were harvested using cell dissociation buffer (Invitrogen), washed twice with FACS buffer (PBS with 0.5% BSA), and treated 10 minutes with Cyto Q Antibody diluent and FC receptor block (Innovex Biosciences, Richmond, Calif.). Purified antibodies were diluted in FACS buffer over a concentration range from 0.01 nM to 25 nM. Cells were incubated with 100 μl of antibody for one hour, washed with FACS buffer three times, and incubated for 45 minutes with goat anti-mouse PE-conjugated antibody (Jackson ImmunoResearch Laboratories, West Grove, Pa.) or donkey anti-human PE-conjugated antibody (Jackson ImmunoResearch Laboratories, West Grove, Pa.). Cells were washed three times with FACS buffer, resuspended in 300 μl of FACS buffer, and analyzed using a Beckman Coulter Cytomics FC 500 FACS instrument. All four antibodies were compared in the same experiment.

The target of experiment [4] is T2, recombinant human RON SEMA and PSI …. Kind of experiment: ECL competition assay: antibody titrated on plate-coated hRON SEMA+PSI; blocked ligand MSP, detected with biotinylated anti-MSP antibody. The procedure:
as §1, §2

B1: 29B06 (antibody, mouse IgG1, kappa)
heavy: EVQLQESGPSLVKPSQTLSLTCSVTGDSITSGYWNWIRKFPGNKLEYMGYISYSGKTYYNPSLKSRISITRDTSKNHYYLQLISVTAEDTATYYCARSKYDYAMDYWGQGTSVTVSSAKTTPPSVYPLAPGSAAQTNSMVTLGCLVKGYFPEPVTVTWNSGSLSSGVHTFPAVLQSDLYTLSSSVTVPSSTWPSETVTCNVAHPASSTKVDKKIVPRDCGCKPCICTVPEVSSVFIFPPKPKDVLTITLTPKVTCVVVDISKDDPEVQFSWFVDDVEVHTAQTQPREEQFNSTFRSVSELPIMHQDWLNGKEFKCRVNSAAFPAPIEKTISKTKGRPKAPQVYTIPPPKEQMAKDKVSLTCMITDFFPEDITVEWQWNGQPAENYKNTQPIMDTDGSYFVYSKLNVQKSNWEAGNTFTCSVLHEGLHNHHTEKSLSHSPGK
light: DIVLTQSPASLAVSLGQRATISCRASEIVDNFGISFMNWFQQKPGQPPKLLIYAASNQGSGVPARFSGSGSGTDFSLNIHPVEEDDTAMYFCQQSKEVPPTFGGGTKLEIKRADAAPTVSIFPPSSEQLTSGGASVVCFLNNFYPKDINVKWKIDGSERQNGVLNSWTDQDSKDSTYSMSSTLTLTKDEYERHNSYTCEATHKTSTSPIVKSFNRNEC
notes: Murine hybridoma monoclonal, IgG1/kappa; also called mu29B06; antibody 29B06
In general, IC50 refers to the midpoint of a concentration-inhibition curve. One may read the Kd as a measure of binding affinity in units of concentration. For the molecule B1, the “Percent Inhibition of MSP-induced HPAF-II cell migration, antibody 2 ug/ml” value in experiment [1] was determined as 96.8%. The IC50 in experiment [2] was found to be 1.11 nM. Moreover, the Kd in experiment [3] stood at 0.136 nM. Besides, in experiment [4], the “IC50 (read off the curve)” value is roughly 1 nM.

B2: 07F01 (antibody, mouse IgG1, kappa, V domains shown)
VH: EVKLLESGGGLVQPGGSLKLSCAASGFDFSRHWMSWVRLAPGKGLEWIAEINPDSRTINYTPSLKEKFIISRDNAKNSLFLQMNRVRSEDTALYYCARRVRIHYYGAMDCWGQGTSVTVSS
VL: DIVLTQSQKIVSTSVGARVSVTCKASQNVGSSLVWYQQKPGQSPKTLIYSASFRYSGVPDRFTGSGSGTDFTLTISNVQSEDLADYFCQQYNNYPLTFGAGTKLELKR
notes: Murine hybridoma monoclonal, IgG1/kappa; also called mu07F01; antibody 07F01
For the molecule B2, the “Percent Inhibition of MSP-induced HPAF-II cell migration, antibody 2 ug/ml” value in experiment [1] stood at 95.6%. In experiment [2], the half-maximal inhibitory concentration (IC50) is 0.26 nM. The same molecule registered a dissociation constant (Kd) in experiment [3] of 0.053 nM. In experiment [4], the “IC50 (read off the curve)” value is roughly 0.3 nM.
